One may read the Kd as the constant that tells how readily two partners part at equilibrium. Low readings indicate tighter binding, high ones weaker binding.

Among the data in article PMC3750474 (2013) are Kd values, retold here.

Assay [1] has as its target T1, FIV N-terminal capsid domain (feline immunodeficiency virus (FIV)).
T1 chain: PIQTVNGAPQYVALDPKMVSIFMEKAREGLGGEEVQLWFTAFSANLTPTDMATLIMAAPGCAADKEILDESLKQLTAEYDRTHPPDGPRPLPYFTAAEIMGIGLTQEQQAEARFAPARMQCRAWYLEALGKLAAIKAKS
The assay is described as follows: ITC. Background: Isothermal titration calorimetry measures the heat released or taken up as one component is titrated into another.

Assay [2] has as its target HIV-1 M-group (NL4-3) N-terminal capsid domain (HIV-1 M-group (NL4-3)). The assay is described as follows: ITC.

B1: cyclophilin domain from human NUP358 (domain or fragment)
chain: ELSKETNPVVFFDVCADGEPLGRITMELFSNIVPRTAENFRALCTGEKGFGFKNSIFHRVIPDFVCQGGDITKHDGTGGQSIYGDKFEDENFDVKHTGPGLLSMANQGQNTNNSQFVITLKKAEHLDFKHVVFGFVKDGMDTVKKIESFGSPKGSVCRRITITECGQI
For the molecule B1, in assay [1], binding was put at a Kd of 290 µM.

B2: NUP358Cyp V113F (domain or fragment)
chain: ELSKETNPVVFFDVCADGEPLGRITMELFSNIVPRTAENFRALCTGEKGFGFKNSIFHRVIPDFVCQGGDITKHDGTGGQSIYGDKFEDENFDVKHTGPGLLSMANQGQNTNNSQFFITLKKAEHLDFKHVVFGFVKDGMDTVKKIESFGSPKGSVCRRITITECGQI
For B2, the affinity in assay [2], expressed as Kd, was 92 µM.

B3: NUP358Cyp V61M/V113F (domain or fragment)
chain: ELSKETNPVVFFDVCADGEPLGRITMELFSNIVPRTAENFRALCTGEKGFGFKNSIFHRVIPDFMCQGGDITKHDGTGGQSIYGDKFEDENFDVKHTGPGLLSMANQGQNTNNSQFFITLKKAEHLDFKHVVFGFVKDGMDTVKKIESFGSPKGSVCRRITITECGQI
B3 showed a Kd in assay [2] of 31 µM.
